From PMC2819980

Columns and labels:
[1] = test system: NCCCP(=O)(O)OP(=O)(O)OC[C@H]1O[C@@H](n2ccc(N)nc2=O)[C@H](O)[C@@H]1O; test: steady-state kinetics; format: biochemical, Streptomyces rubellomurinus
[2] = test system: Nc1ccn([C@@H]2O[C@H](COP(=O)(O)OP(=O)(O)CCCNO)[C@@H](O)[C@H]2O)c(=O)n1; test: steady-state kinetics; format: biochemical, Streptomyces rubellomurinus

With FrbF (Streptomyces rubellomurinus) the Km [1] was 35.2 ± 3.2 µM, the kcat [1] was 0.0577 ± 0.00267 s⁻¹ and the kcat/Km [1] was 1630 M⁻¹ s⁻¹. The Km [2] was 52.3 ± 3.0 µM, the kcat [2] was 0.034 ± 0.00717 s⁻¹ and the kcat/Km [2] was 650 M⁻¹ s⁻¹.
